Measurements: PMC7519114

B1: Recombinant mouse CXCL11 (ligand)
chain: FLMFKQGRCLCIGPGMKAVKMAEIEKASVIYPSNGCDKVEVIVTMKAHKRQRCLDPRSKQARLIMQAIEKKNFLRRQNM

Tests used:
[1] = target: ACKR3 of primary mouse astrocytes (mouse (endogenous in primary astrocytes)) (UniProt P56485)
[2] = target: ACKR3 of primary mouse astrocytes (mouse (endogenous in primary astrocytes)) (UniProt P56485); remark: listed apart in the source

UniProt P56485, sequence (P56485 whole entry): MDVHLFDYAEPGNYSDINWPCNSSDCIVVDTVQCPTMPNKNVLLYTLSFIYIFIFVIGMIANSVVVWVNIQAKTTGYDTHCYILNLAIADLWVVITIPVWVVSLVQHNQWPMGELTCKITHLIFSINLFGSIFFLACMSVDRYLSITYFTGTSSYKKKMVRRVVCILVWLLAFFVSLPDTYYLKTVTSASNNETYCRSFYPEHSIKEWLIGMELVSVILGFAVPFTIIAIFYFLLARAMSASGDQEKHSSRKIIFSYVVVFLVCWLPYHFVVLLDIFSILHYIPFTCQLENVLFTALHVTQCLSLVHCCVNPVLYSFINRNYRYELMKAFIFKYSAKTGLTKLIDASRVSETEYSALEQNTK

| inhibition of forskolin-induced cAMP production in astrocytes, CXCL12 (10 nM) [1] [% inhibition] | inhibition of forskolin-induced cAMP production in astrocytes, CXCL12 after pre-treatment with the CXCR4 antagonist AMD3100 (1 μM, 30 min) [1] [%] | junctional current (Ij) magnitude in astrocyte cell pairs (double patch-clamp), after bath-application of CXCL12 [2] [%] | junctional current (Ij) magnitude in astrocyte cell pairs (double patch-clamp), after bath-application of CXCL11 [2] [%] | Molecule |
| --- | --- | --- | --- | --- |
| 40.8 | 44.9 | 56.5 |  | Human/Feline/Rhesus Macaque CXCL12 (from UniProt P48061 22-93) (ligand) |
|  |  |  | 52 | B1 |
